Marks after values point to notes of the source that are not given here.
T1: FIT-NP (FIT N-terminal plus proline-rich region) (Homo sapiens, UniProt Q9BQI5)
T1 construct: expressed in transfected cells
T1 sequence (Q9BQI5 with tags, fused parts or gaps I33M/P40L/N43H/V56A/I186T/P191L/T195L/E211G/Q212H/I230V/T240A/N255T/I269V/G270A/P271T/S276A/V280A/L285P/N289S/A308T/K311T/T318A/S335T/T339A/P340S/N342I/A348T/L352P/P357S/T358A/DEL367-367/L371P/I397L/D402E/F403C/A409E/P432S/P434T/T437A/R454S/S455C/T456S): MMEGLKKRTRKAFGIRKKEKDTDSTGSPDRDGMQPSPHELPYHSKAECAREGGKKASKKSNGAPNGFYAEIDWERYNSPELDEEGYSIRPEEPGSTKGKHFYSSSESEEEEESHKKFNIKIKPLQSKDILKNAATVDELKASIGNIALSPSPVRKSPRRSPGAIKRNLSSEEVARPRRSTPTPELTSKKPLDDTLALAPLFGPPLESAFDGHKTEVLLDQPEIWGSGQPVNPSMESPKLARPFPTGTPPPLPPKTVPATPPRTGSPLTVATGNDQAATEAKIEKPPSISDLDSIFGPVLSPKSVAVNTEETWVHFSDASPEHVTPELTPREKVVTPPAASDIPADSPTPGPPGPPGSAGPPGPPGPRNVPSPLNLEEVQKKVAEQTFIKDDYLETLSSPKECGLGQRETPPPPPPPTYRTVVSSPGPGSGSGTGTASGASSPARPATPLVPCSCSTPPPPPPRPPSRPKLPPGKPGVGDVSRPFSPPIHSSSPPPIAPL

B1: α-2 subunit of the AP2 complex: FIT interacting protein isolated from a human brain cDNA library (protein)
chain: MPAVSKGDGMRGLAVFISDIRNCKSKEAEIKRINKELANIRSKFKGDKALDGYSKKKYVCKLLFIFLLGHDIDFGHMEAVNLLSSNRYTEKQIGYLFISVLVNSNSELIRLINNAIKNDLASRNPTFMGLALHCIASVGSREMAEAFAGEIPKVLVAGDTMDSVKQSAALCLLRLYRTSPDLVPMGDWTSRVVHLLNDQHLGVVTAATSLITTLAQKNPEEFKTSVSLAVSRLSRIVTSASTDLQDYTYYFVPAPWLSVKLLRLLQCYPPPDPAVRGRLTECLETILNKAQEPPKSKKVQHSNAKNAVLFEAISLIIHHDSEPNLLVRACNQLGQFLQHRETNLRYLALESMCTLASSEFSHEAVKTHIETVINALKTERDVSVRQRAVDLLYAMCDRSNAPQIVAEMLSYLETADYSIREEIVLKVAILAEKYAVDYTWYVDTILNLIRIAGDYVSEEVWYRVIQIVINRDDVQGYAAKTVFEALQAPACHENLVKVGGYILGEFGNLIAGDPRSSPLIQFHLLHSKFHLCSVPTRALLLSTYIKFVNLFPEVKPTIQDVLRSDSQLRNADVELQQRAVEYLRLSTVASTDILATVLEEMPPFPERESSILAKLKKKKGPSTVTDLEDTKRDRSVDVNGGPEPAPASTSAVSTPSPSADLLGLGAAPPAPAGPPPSSGGSGLLVDVFSDSASVVAPLAPGSEDNFARFVCKNNGVLFENQLLQIGLKSEFRQNLGRMFIFYGNKTSTQFLNFTPTLICSDDLQPNLNLQTKPVDPTVEGGAQVQQVVNIECVSDFTEAPVLNIQFRYGGTFQNVSVQLPITLNKFFQPTEMASQDFFQRWKQLSNPQQEVQNIFKAKHPMDTEVTKAKIIGFGSALLEEVDPNPANFVGAGIIHTKTTQIGCLLRLEPNLQAQMYRLTLRTSKEAVSQRLCELLSAQF
modifications: left off: large carriers
B2: RNA-binding protein EWS: FIT interacting protein isolated from a human brain cDNA library (protein)
chain: MASTDYSTYSQAAAQQGYSAYTAQPTQGYAQTTQAYGQQSYGTYGQPTDVSYTQAQTTATYGQTAYATSYGQPPTGYTTPTAPQAYSQPVQGYGTGAYDTTTATVTTTQASYAAQSAYGTQPAYPAYGQQPAATAPTRPQDGNKPTETSQPQSSTGGYNQPSLGYGQSNYSYPQVPGSYPMQPVTAPPSYPPTSYSSTQPTSYDQSSYSQQNTYGQPSSYGQQSSYGQQSSYGQQPPTSYPPQTGSYSQAPSQYSQQSSSYGQQSSFRQDHPSSMGVYGQESGGFSGPGENRSMSGPDNRGRGRGGFDRGGMSRGGRGGGRGGMGSAGERGGFNKPGGPMDEGPDLDLGPPVDPDEDSDNSAIYVQGLNDSVTLDDLADFFKQCGVVKMNKRTGQPMIHIYLDKETGKPKGDATVSYEDPPTAKAAVEWFDGKDFQGSKLKVSLARKKPPMNSMRGGLPPREGRGMPPPLRGGPGGPGGPGGPMGRMGGRGGDRGGFPPRGPRGSRGNPSGGGNVQHRAGDWQCPNPGCGNQNFAWRTECNQCKAPKPEGFLPPPFPPPGGDRGRGGPGGMRGGRGGLMDRGGPGGMFRGGRGGDRGGFRGGRGMDRGGFGGGRRGGPGGPPGPLMEQMGGRRGGRGGPGKMDKGEHRQERRDRPY
modifications: left off: large carriers
B3: α-1 subunit of the AP2 complex: FIT interacting protein isolated from a human brain cDNA library (protein)
chain: MPAVSKGDGMRGLAVFISDIRNCKSKEAEIKRINKELANIRSKFKGDKALDGYSKKKYVCKLLFIFLLGHDIDFGHMEAVNLLSSNKYTEKQIGYLFISVLVNSNSELIRLINNAIKNDLASRNPTFMCLALHCIANVGSREMGEAFAADIPRILVAGDSMDSVKQSAALCLLRLYKASPDLVPMGEWTARVVHLLNDQHMGVVTAAVSLITCLCKKNPDDFKTCVSLAVSRLSRIVSSASTDLQDYTYYFVPAPWLSVKLLRLLQCYPPPEDAAVKGRLVECLETVLNKAQEPPKSKKVQHSNAKNAILFETISLIIHYDSEPNLLVRACNQLGQFLQHRETNLRYLALESMCTLASSEFSHEAVKTHIDTVINALKTERDVSVRQRAADLLYAMCDRSNAKQIVSEMLRYLETADYAIREEIVLKVAILAEKYAVDYSWYVDTILNLIRIAGDYVSEEVWYRVLQIVTNRDDVQGYAAKTVFEALQAPACHENMVKVGGYILGEFGNLIAGDPRSSPPVQFSLLHSKFHLCSVATRALLLSTYIKFINLFPETKATIQGVLRAGSQLRNADVELQQRAVEYLTLSSVASTDVLATVLEEMPPFPERESSILAKLKRKKGPGAGSALDDGRRDPSSNDINGGMEPTPSTVSTPSPSADLLGLRAAPPPAAPPASAGAGNLLVDVFDGPAAQPSLGPTPEEAFLSELEPPAPESPMALLADPAPAADPGPEDIGPPIPEADELLNKFVCKNNGVLFENQLLQIGVKSEFRQNLGRMYLFYGNKTSVQFQNFSPTVVHPGDLQTQLAVQTKRVAAQVDGGAQVQQVLNIECLRDFLTPPLLSVRFRYGGAPQALTLKLPVTINKFFQPTEMAAQDFFQRWKQLSLPQQEAQKIFKANHPMDAEVTKAKLLGFGSALLDNVDPNPENFVGAGIIQTKALQVGCLLRLEPNAQAQMYRLTLRTSKEPVSRHLCELLAQQF
modifications: left off: large carriers

Experiments:
[1] = biological target: T1, FIT-NP (FIT N-terminal plus proline-rich region); assay: Yeast two-hybrid screen of human brain cDNA library, bait FIT-NP; format: binding; details: for Number of clones: bait FIT-NP, human brain cDNA library, clones listed highest to lowest interacting strength; for strength of interaction with FIT: in yeast
From the text: In order to perform these experiments, two truncated fragments of FIT were constructed to be used as baits in a yeast two-hybrid screen of a human brain cDNA library: one bait consisting of the N-terminal region plus the central proline-rich region, and the other bait consisting of the central proline-rich region alone. The inventors utilised a yeast two-hybrid system which incorporates modifications by Chevray and Nathans (1992), and Vidal et al. (1996) to screen a human brain cDNA library. FIT fragments were PCR amplified, purified and then cloned into an appropriate vector. Sense oligonucleotides for FIT-NP (5′-[…]-3′: SEQ ID NO:72), and FIT-PR (5′-[…]-3′: SEQ ID NO:73), with Sal1 restriction enzyme sites underlined, were used in conjunction with a common antisense oligonucleotide (5′-[…]-3′: SEQ ID NO:74), with the Not1 restriction enzyme site underlined.
Human brain cDNA inserts were prepared and cloned into the expression vector according to manufacturer's instructions.

melanocortin receptor = assay: Feeding response to ICV injection of SHU9119 after three days of ODN or saline infusion; format: in vivo, Sprague Dawley rats; details: mean ± SEM
From the text: To further analyse the link between FIT and the melanocortin system, the feeding response of Sprague Dawley rats to an ICV injection of SHU9119, a melanocortin receptor antagonist and known feeding stimulator was investigated. After three days of FIT antisense treatment, jumbled oligonucleotide or saline infusion, responses were compared to rats receiving an ICV injection of saline vehicle rather than SHU9119.

Molecule | Number of clones [1] | Δ FI (melanocortin receptor; 48 hr food intake post minus pre injection) [g/g BW] | 48 hr FI post injection (melanocortin receptor; food intake relative to body weight, after ICV SHU9119 or vehicle injection) | 48 hr FI pre injection (melanocortin receptor; food intake relative to body weight, during ICV infusion, before SHU9119 or vehicle injection) [g/g BW] | strength of interaction with FIT [1]
MAD2: FIT interacting protein isolated from a human brain cDNA library | 1 |  |  |  | 
SHU9119 |  | 0.02 ± 0.01 | 0.16 ± 0.01^a g/g BW | 0.14 ± 0.01 | 
β-arrestin 1: FIT interacting protein isolated from a human brain cDNA library | 1 |  |  |  | slightly lesser strength
B1 | 1 |  |  |  | slightly lesser strength
B2 | 1 |  |  |  | 
B3 | 8 |  |  |  | slightly lesser strength

Source: US20080105961A1, “Ligands of the Molecule Fit (Agt-121) and their Pharmaceutical Use” (priority 2004, published 2008)
